According to the RNAGym collection of RNA variant scans (doi:10.7554/elife.80360):

B1: CPEB3 Ribozyme (parent)
chain: GGGGGCCACAGCAGAAGCGUUCACGUCGCGGCCCCUGUCAGAUUCUGGUGAAUCUGCGAAUUCUGCUGU

Variants of: B1
Assay: self-cleavage, relative activity (ratio to wild type); higher = more cleavage; co-transcriptional

Variant	self-cleavage
G4A G58U	0.9
G4A G58A	0.683
G3U C57U	0.0383
G3U C57A	0.0577
G4C C7A	0.0992
G4C C7U	0.129
G3U G28U	0.0309
G3U G28C	0.0382
G4A A16G	0.737
G4A A16U	0.459
G4A A23G	0.827
G4A A23U	0.886
G3U A60G	0.0646
G3U A60U	0.0237
G3U A60C	0.0666
G3U G17C	0.0675
G3U G17U	0.0304
G3U U49A	0.201
G3U U49C	0.176
G3U G25C	0.0349
G4C C29G	0.0753
G4C C29A	0.0787
G4A A8G	0.698
G4A A8U	0.86

Variant	self-cleavage
G4A A8C	0.897
G3U U43C	0.0372
G3U U43A	0.0999
G4A A42G	0.806
G4A A42C	0.473
G4A G50C	0.808
G4A G50U	0.849
G4A G50A	0.839
G3U C7U	0.0677
G3U C7A	0.0696
G3U C35A	0.0237
G3U C35G	0.0418
G3U C39G	0.0714
G3U C39U	0.043
G3U C39A	0.0589
G3U G5C	0.0208
G3U G5A	0.0231
G4A C54G	0.388
G3U G31A	0.074
G3U G31U	0.0468
G4C C35G	0.0833
G4C C35A	0.0948
G4A A52U	0.882
G4C C63U	0.584

Variant	self-cleavage
G4C C63A	0.217
G4A U69G	0.985
G4A U69A	0.912
G3U U20A	0.0443
G4A U44C	0.679
G4A U44A	0.646
G4A U44G	0.558
G4A A10G	0.868
G4A A10C	0.968
G4A G48A	0.92
G3C U64C	0.0655
G4C G25A	0.0767
G4C G25C	0.102
G4A G68U	0.978
G3U U55C	0.104
G4A U21C	0.465
G4A U21G	0.253
G4C A60U	0.174
G4A C12A	0.477
G4A C12G	0.5
G4A U38G	0.107
G4A U38A	0.761
G3U G37A	0.0344
G3U G37C	0.035

Variant	self-cleavage
G3U G37U	0.0515
G3U G30A	0.0662
G3U G30C	0.0267
G3U G30U	0.0357
G4A C39U	0.544
G4A C39A	0.521
G4A C34A	0.31
G4A C34U	0.627
G4C A8C	0.578
G4C A8G	0.545
G4C A8U	0.617
G4C A59U	0.203
G4C A59G	0.37
G4A C29G	0.103
G4A C29U	0.216
G4C A10U	0.802
G4A U36G	0.424
G4A U36C	0.792
G4A C7A	0.0893
G4A C7U	0.458
G4A U53C	0.617
G4A G31C	0.148
G4A G31U	0.159
G4C C39U	0.261

Variant	self-cleavage
G4C C39A	0.223
G3U C27U	0.0361
G3U C27G	0.0583
G3U A15C	0.0817
G3U A15G	0.141
G3U A15U	0.0782
G3U G14U	0.0458
G3U G14C	0.0411
G4A G25U	0.0834
G4A G25A	0.117
G3U C12A	0.0925
G4A A40C	0.216
G3U C22U	0.047
G3U C22G	0.0464
G3U C22A	0.051
G4A G14U	0.519
G4A G14C	0.305
G3U C29U	0.0459
G3C U67G	0.219
G3C U67A	0.239
G3U U62G	0.108
G3U U62A	0.0711
G3U C54G	0.0746
G3U C54U	0.148

Variant	self-cleavage
G3U C54A	0.0729
G4A C45A	0.808
G4A C45U	0.909
G3U G11C	0.0634
G4A G30U	0.0939
G4A G30A	0.294
G4A G30C	0.188
G3U U38G	0.0509
G3U U38C	0.0341
G3U C34A	0.687
G3U C34U	0.381
G4A U67A	0.92
G4A U67C	0.986
G4A U67G	0.918
G4C C27U	0.0743
G4A A13U	0.66
G4A A13C	0.588
G4C A52G	0.53
G4C A52C	0.38
G4C C34G	0.0856
G4A C35G	0.162
G4A C35A	0.175
G4A C6A	0.0589
G3U G65C	0.0613

Variant	self-cleavage
G3U G65A	0.171
G3U U21C	0.0376
G3U U21G	0.0385
G3U U21A	0.157
G3U U44A	0.0987
G3U U44G	0.115
G3U U44C	0.127
G4A U61G	0.508
G4A U61A	0.477
G3U U64C	0.132
G3U U64G	0.138
G3U U64A	0.128
G3U U36C	0.122
G3U U36G	0.135
G4A C22U	0.157
G4A C22G	0.165
G3U G41A	0.0442
G3U G41U	0.0372
G3U G41C	0.0828
G3U C24G	0.0481
G3U C24U	0.0674
G3U C24A	0.0286
G3U G19U	0.0853
G3U G19A	0.0413

Variant	self-cleavage
G3U	0.195
G4A G28U	0.127
G4A G28C	0.162
G4C C6A	0.0438
G4C C6G	0.0309
G4A C32A	0.216
G4A A51U	0.804
G3U U26C	0.107
G3U U26G	0.0677
G4C A13U	0.302
G4C A13G	0.472
G3U A16U	0.0502
G3U A16C	0.0591
G3U A16G	0.0682
G4A U43A	0.683
G4A U43G	0.511
G4A U43C	0.651
G4C C24A	0.167
G4C C24G	0.117
G4A C27U	0.19
G4A C27A	0.212
G3U A40G	0.0981
G3U A40U	0.0917
G4A A15G	0.93

Variant	self-cleavage
G4A A15U	0.455
G4A A15C	0.329
G4C A51U	0.493
G4C A51C	0.381
G4C A51G	0.567
G3U G58A	0.0734
G3U G58C	0.0675
G4C C54U	0.562
G4C C54A	0.225
G4C C54G	0.175
G3U G47C	0.177
G3U G47U	0.175
G3U A23G	0.0915
G4C G11C	0.273
G4C G11A	0.375
G4C G11U	0.262
G4A G47A	0.895
G4A G47C	0.901
G4A C18G	0.158
G4A C18U	0.481
G4A C18A	0.147
G4A G17C	0.0965
G4A G17A	0.175
G3U C9G	0.446

Variant	self-cleavage
G4C C45A	0.419
G4C C45U	0.733
G4C C45G	0.477
G4A U20A	0.23
G4A U20G	0.0767
G4A C57G	0.217
G4A C57U	0.223
G4A C57A	0.245
G4A C66U	0.852
G4A C66A	0.743
G3U G56C	0.0723
G3U G56U	0.109
G3U G48A	0.245
G4C C32U	0.198
G4C C22A	0.0918
G4C A42U	0.354
G4C A42C	0.237
G4A C63U	0.84
G4C C18G	0.0437
G4C C18A	0.0472
G4C C18U	0.129
G3C U69G	0.222
G3C U69C	0.495
G4A G11C	0.631

Variant	self-cleavage
G4A G11U	0.629
G4A G11A	0.672
G4A U62C	0.587
G3U A10U	0.424
G3U A10C	0.332
G3U C66U	0.151
G3U C66G	0.145
G4A G56U	0.744
G4A G56C	0.456
G4A A59G	0.749
G4A A59C	0.32
G4A A59U	0.283
G3U C6U	0.0423
G3U C6G	0.0291
G4A C9G	1.05
G4A C9U	0.953
G4A C9A	1.03
G4C A15C	0.145
G4C A15G	0.496
G4A G65A	0.735
G4A G65U	0.406
G4A G65C	0.418
G4A G37U	0.154
G4A G37C	0.149

Variant	self-cleavage
G4A G37A	0.179
G4C C12A	0.166
G4C C12U	0.608
G4C C12G	0.148
G4C A23G	0.349
G4C A23C	0.432
G3U A8U	0.121
G3U A8G	0.0722
G3U A8C	0.146
G4A U46C	0.828
G3U A51U	0.17
G3U A51C	0.105
G4C A16G	0.122
G3U U53A	0.112
G3U U53C	0.0626
G4A G41A	0.506
G4A C24G	0.177
G4A C24A	0.295
G4A C24U	0.352
G4A C33G	0.68
G3U G4A	0.0885
G3U G4C	0.0209
G3U A13C	0.0166
G3U A13G	0.181

Variant	self-cleavage
G3U A13U	0.105
G4C G19A	0.0646
G4C G14U	0.149
G4C G14A	0.223
G4C G14C	0.101
G3U U69C	0.46
G3U U69G	0.283
G3U U69A	0.301
G3U U46G	0.161
G3U U46C	0.105
G3U C33A	0.102
G3U C33U	0.0906
G4C G5U	0.0341
G4C G5C	0.212
G3U C32U	0.0936
G3U G50C	0.145
G4C C57A	0.136
G4A A60C	0.217
G4A A60G	0.475
G4A A60U	0.264
G3U U61A	0.0525
G3U U61C	0.0446
G4C G17C	0.0898
G4A U26C	0.827

Variant	self-cleavage
G4C A40G	0.526
G4C A40C	0.202
G4C A40U	0.228
G4C C9G	0.899
G4C C9A	0.905
G4C C9U	0.937
G3U A59C	0.0549
G3U A59U	0.0422
G4A G5A	0.103
G4A G5C	0.113
G4A G19U	0.178
G4A G19C	0.11
G4C C66A	0.396
G4C C66G	0.229
G4C C66U	0.678
G4A U49C	0.916
G4A U49G	0.728
G3U C63U	0.114
G3U G68A	0.554
G4A U55G	0.52
G3U C45U	0.162
G3U U67A	0.406
